Results published in patent publication US20190062448A1, “ANTI-CD39 ANTIBODIES, COMPOSITIONS COMPRISING ANTI-CD39 ANTIBODIES AND METHODS OF USING ANTI-CD39 ANTIBODIES” (Tizona Therapeutics, priority 2017, published 2019).
Entries after “also recorded” stand apart in the source; their conditions may differ.

T1: human CD39 endogenously expressed on MEL-28 cells (Homo sapiens, UniProt P49961)
T1 construct: MEL-28 cells (35,000 MEL-28 cells/well) endogenously expressing human CD39; endogenous in cells; host or cells: MEL-28
T1 sequence (P49961 1-510): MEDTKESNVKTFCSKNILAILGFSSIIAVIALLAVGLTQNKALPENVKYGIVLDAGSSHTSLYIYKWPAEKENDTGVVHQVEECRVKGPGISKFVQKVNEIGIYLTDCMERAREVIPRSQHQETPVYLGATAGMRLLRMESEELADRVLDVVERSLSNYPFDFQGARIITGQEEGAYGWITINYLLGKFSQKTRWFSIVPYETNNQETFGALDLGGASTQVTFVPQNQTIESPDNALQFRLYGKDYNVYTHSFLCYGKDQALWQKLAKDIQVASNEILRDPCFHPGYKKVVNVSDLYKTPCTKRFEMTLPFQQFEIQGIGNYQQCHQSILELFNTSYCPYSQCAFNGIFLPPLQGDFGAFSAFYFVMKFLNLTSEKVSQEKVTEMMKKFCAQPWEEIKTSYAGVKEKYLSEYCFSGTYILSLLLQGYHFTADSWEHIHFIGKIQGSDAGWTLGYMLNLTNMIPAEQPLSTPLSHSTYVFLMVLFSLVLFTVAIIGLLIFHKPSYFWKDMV

T2: CD39 expressed on MEL-28 cells (Homo sapiens, UniProt P49961)
T2 construct: endogenous in cells; host or cells: MEL-28
T2 sequence (P49961 1-510): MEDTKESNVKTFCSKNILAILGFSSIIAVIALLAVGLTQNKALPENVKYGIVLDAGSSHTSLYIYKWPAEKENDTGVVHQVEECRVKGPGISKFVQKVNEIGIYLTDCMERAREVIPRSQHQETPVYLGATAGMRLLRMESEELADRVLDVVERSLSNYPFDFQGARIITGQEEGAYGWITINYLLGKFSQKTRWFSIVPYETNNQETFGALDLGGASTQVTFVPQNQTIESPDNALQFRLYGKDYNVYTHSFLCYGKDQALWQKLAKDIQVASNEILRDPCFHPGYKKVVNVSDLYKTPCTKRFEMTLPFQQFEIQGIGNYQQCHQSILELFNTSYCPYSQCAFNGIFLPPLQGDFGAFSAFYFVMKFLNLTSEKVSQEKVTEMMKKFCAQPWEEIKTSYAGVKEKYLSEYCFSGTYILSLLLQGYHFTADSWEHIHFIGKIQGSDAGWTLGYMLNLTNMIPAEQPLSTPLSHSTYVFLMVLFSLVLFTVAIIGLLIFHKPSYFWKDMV

T3: hCD39-ECD (Homo sapiens, UniProt P49961)
T3 sequence (P49961 38-478 limits assumed): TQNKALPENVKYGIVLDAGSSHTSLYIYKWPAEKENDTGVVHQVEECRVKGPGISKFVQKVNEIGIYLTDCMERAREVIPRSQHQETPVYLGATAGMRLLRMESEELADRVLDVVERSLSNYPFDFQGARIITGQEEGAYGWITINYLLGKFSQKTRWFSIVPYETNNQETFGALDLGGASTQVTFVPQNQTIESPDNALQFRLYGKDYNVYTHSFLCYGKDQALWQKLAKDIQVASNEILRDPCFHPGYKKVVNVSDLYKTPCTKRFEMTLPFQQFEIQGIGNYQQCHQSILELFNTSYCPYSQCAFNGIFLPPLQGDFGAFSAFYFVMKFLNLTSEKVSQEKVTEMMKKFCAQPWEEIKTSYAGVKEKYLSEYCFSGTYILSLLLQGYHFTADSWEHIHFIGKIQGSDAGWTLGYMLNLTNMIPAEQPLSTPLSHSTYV


Tests used:
[1] = target: T1, human CD39 endogenously expressed on MEL-28 cells; experiment: EnzChek kinetic Pi detection assay on MEL-28 cells (initial velocity, Michaelis-Menten); format: cell-based; settings: ARL 200 micromolar, isotype control 7.7
Method: Anti-CD39 antibodies (100 nanomolar), isotype control antibody (100 nanomolar), or ARL (200 micromolar) were incubated with MEL-28 cells endogenously expressing human CD39 for 2 hours. ATP was then added and the rate of ATP hydrolysis to Pi by CD39 was monitored using the EnzChek kinetic Pi detection assay. The initial enzyme velocity, ν0, was determined from the linear region of Pi vs. time curve over the first 15 minutes post-ATP addition. Each value is the mean of 3 replicates.
Anti-CD39 antibodies or isotype control antibody (100 nanomolar final concentration) were incubated with MEL-28 cells (35,000 MEL-28 cells/well) endogenously expressing human CD39 at 37° C. for 20 minutes in the presence of EnzChek reagents (PNP & MESG). Immediately following the addition of ATP (final concentrations ranging from 0-450 micromolar), the rate of ATP hydrolysis to free phosphate (Pi) by CD39 was monitored over time at Abs360 nm using SpectraMax i3x plate reader. The initial enzyme velocity, ν0, was determined from the linear region of Pi vs. time curve for each ATP concentration. The plot of ν0 vs. [ATP] was curve fit using non-linear regression of the Michaelis-Menten kinetic model.

[2] = target: T2, CD39 expressed on MEL-28 cells; experiment: Cellular CD39 ATPase inhibition (Malachite Green), Example 15; format: cell-based; settings: 10-25 μg/ml antibody; 50 μM ATP; vs isotype control
Method: Indicated cells were incubated in assay buffer with 10-25 μg/ml antibody, 100 μM POM-1 or 100 μM ARL for 30 min at 37° C. 5% CO2. ATP was added to a final concentration of 50 μM and the incubation continued for 15 min. Supernatant was evaluated for free phosphate (Pi) using the Malachite Green Phosphate Detection kit. Palivizumab is used as an isotype control and POM-1 and ARL are non-specific small molecule inhibitors of CD39.
(§1) Also, an 18 hour incubation was used with the antibody or isotype control. Finally, an additional 30 second baseline dip in buffer between antigen capture and dipping into a second competitor antibody for 300 seconds was used.

hCD39-ECD [3] = target: T3, hCD39-ECD; experiment: Epitope binning / competition for hCD39-ECD binding by Bio-Layer Interferometry
Excerpt: A1 antibody was immobilized onto an Anti-Mouse IgG Fc Capture (AMC) biosensor (ForteBio). Association of hCD39-ECD was then monitored for 180 seconds via Bio-Layer Interferometry (BLI) using the Octet system (ForteBio), at which point the biosensor was dipped into competitor antibody and monitored for another 180 seconds.
The methods are the same as set forth above except that instead of A1, the representative antibody was immobilized using anti-human IgG Fc Capture (AHC) biosensor.
as §1

hCD39-ECD [4] = target: T3, hCD39-ECD; experiment: rhCD39-ECD ATPase inhibition (Malachite Green free phosphate); format: biochemical; design: purchased R&D Systems; settings: 50 μg/ml antibody; 10 μM ATP; vs isotype or buffer controls
Method: 0.04-3.3 nM rhCD39-ECD (R&D Systems) was incubated with buffer, 50 μg/ml antibody or 100 μM POM-1 (Alpha Aesar) for 1 hr at 37° C. in assay buffer (25 mM Tris pH 7.5, 5 mM CaCl2) at which point ATP (Sigma) was spiked in to a final concentration of 10 μM, and the reaction further incubated for 30 min 37° C. Production of free phosphate (Pi) was subsequently measured using Malachite Green Phosphate Detection kit (R&D Systems).
as §1

Row | ATP hydrolysis rate (initial velocity) [1] | competition / binning with other anti-CD39 antibody bin groups for ECD binding (hCD39-ECD [3]) | Molecule | inhibition of ATPase activity of CD39 expressed on MEL-28 cells [2] | competition with antibody A1 for binding to hCD39 ECD (hCD39-ECD [3]; A1 immobilized, ECD captured, then competitor antibody) | inhibition of ATPase activity of soluble hCD39 ECD (μM Pi) (hCD39-ECD [4])
1 | 1.2 micromolar Pi per minute |  | CCN(CC)c1ncnc2c1ncn2[C@@H]1O[C@H](COP(=O)(O)OP(=O)(O)C(Br)(Br)P(=O)(O)O)[C@@H](O)[C@H]1O [ARL] |  |  | 
2 |  | do not compete | 27571: anti-human CD39 antibody inhibiting soluble ECD and cellular CD39 (antibody, V domains shown, Synthetic VH, 27571; Synthetic VL, 27571) VH: QVQLVQSGAEVKKPGSSVKASCKASGGTFSSYAISWVRQAPGQGLEWMGSIIPIFGTANYAQKFRGRVTITADESTSTTYMELSSLRSEDTAVYYCARESGGYRDHRLDVWGQGTMVTVSS VL: EIVMTQSPATLSVSPGERATLSCRASQSVGSNLAWYQQKPGQAPRLLIYGASTRATGIPARFSGSGSGTEFTLTISSLQSEDFAVYYCQQYLIWPLTFGGGTKVEIK | inhibit the hydrolysis of CD39 expressed on MEL-28 cells | does not block binding; also recorded: do not compete | able to inhibit the hydrolysis of ATP by hCD39 ECD
